The results in this text go back to PMC11406361, “Several orphan solute carriers functionally identified as organic cation transporters: Substrates specificity compared with known cation transporters” (The Journal of Biological Chemistry, 2024).

Common to all, as to assay: cells, lysate or membranes
One data set deals with C[N+](C)(C)CCO. The settings on record: other: SLC35E1, HEK293, net uptake over empty vector cells; pH 7.4.
The next data set deals with CN1CCC[C@H]1c1cccnc1. As to conditions: other: SLC38A10, HEK293, net uptake over empty vector cells; pH 7.4.
For another data set, the system named is Clc1cccc(Cl)c1N=C1NCCN1. The settings on record: other: SLC38A10, HEK293, net uptake over empty vector cells; pH 7.4.
The subject of the next data set is CC(N)Cc1ccccc1. The settings on record: pH 7.4.

One may read the Vmax as the top rate of the reaction or transport when substrate is in excess. On to SLC35E1 (Homo sapiens), for which, in the data set with C[N+](C)(C)CCO, the Km is 91.6 (±39.8) μM, the Vmax was found to be 8.71e-05 µmol/min/mg and the Vmax/Km came out at 0.95 µL/min/mg.
Turning to SLC38A10 (Homo sapiens), the Km in the data set with CN1CCC[C@H]1c1cccnc1 was 62.0 (±35.6) μM; with Clc1cccc(Cl)c1N=C1NCCN1, 162 (±141) μM; in the data set with CC(N)Cc1ccccc1, 120 (±44.9) μM. Also, the maximum rate (Vmax) with Clc1cccc(Cl)c1N=C1NCCN1 worked out at 0.000427 µmol/min/mg. The Vmax/Km with Clc1cccc(Cl)c1N=C1NCCN1 turned out to be 2.64 µL/min/mg.
